The record followed here is article PMC3382596, “A Phthalimide Derivative That Inhibits Centrosomal Clustering Is Effective on Multiple Myeloma” (PLoS ONE, 2012).

The series deals with the molecule itself. The experiment in a line: SEC; gel filtration of recombinant NPM(1-183) from E. coli to separate oligomeric and monomeric forms; fractions checked by SDS-PAGE with CBB staining.

B1: Recombinant NPM(1-183), the 183 NH2-terminal amino acids of nucleophosmin 1 (domain or fragment, human, UniProt P06748 1-183, looked up)
chain: MEDSMDMDMSPLRPQNYLFGCELKADKDYHFKVDNDENEHQLSLRTVSLGAGAKDELHIVEAEAMNYEGSPIKVTLATLKMSVQPTVSLGGFEITPPVVLRLKCGSGPVHISGQHLVAVEEDAESEDEEEEDVKLLSISGKRSAPGGGSKVPQKKVKLAADEDDDDDDEEDDDEDDDDDDFDD
notes: nucleophosmin 1 (NPM/B23), clone from a cDNA library of the human multiple myeloma cell line KMS34; also called NPM/B23; 1-183 NPM; source: E. coli, partially purified, fractionated by gel filtration
On to B1, for which the binding result is recorded as “binds”.
